The text below walks through data of patent US20210002358A1 (Janssen / Centocor, published 2021).

The term EC50 (read off the curve) denotes the concentration at which the effect is half-maximal.

For the experiment, the target named is T1, soluble tau (control tau, recombinant 2N4R tau, SEQ ID NO: 31) (human, UniProt P10636 2-758).
T1 construct: also called Sol-tau; recombinant WT tau
Nature of the experiment: direct ELISA on 2N4R Tau coated at 1 ng/mL. How it is done: Binding to recombinant WT (2N4R; SEQ ID NO:31) tau was analyzed by ELISA where full-length Tau protein (1 ng/mL or 10 ng/mL) was directly coated to the plate and incubated with different concentrations of either recombinantly- or hybridoma produced PT82 antibody (FIG. 2). After incubation with antibodies, plates were again washed and 50 μL per well of HRPO labelled anti-mouse antibody (GE Healthcare) (diluted 1:10000 in blocking buffer) was added. After another washing step detection was performed with “One step” TMB (Thermo Scientific) according to the manufacturers' instructions. Plates were analysed in EnVision® 2102 Multilabel Reader (Perkin Elmer, Waltham, Mass., USA). Binding curves were generated using GraphPad Prism7.0 software. […] No substantial difference has been observed between binding profiles of recombinant and hybridoma produced antibodies.
For orientation: An ELISA detects its analyte on a solid surface through an enzyme-linked reagent.

T1 sequence (P10636 other isoform, or with tags, fused parts or gaps limits assumed): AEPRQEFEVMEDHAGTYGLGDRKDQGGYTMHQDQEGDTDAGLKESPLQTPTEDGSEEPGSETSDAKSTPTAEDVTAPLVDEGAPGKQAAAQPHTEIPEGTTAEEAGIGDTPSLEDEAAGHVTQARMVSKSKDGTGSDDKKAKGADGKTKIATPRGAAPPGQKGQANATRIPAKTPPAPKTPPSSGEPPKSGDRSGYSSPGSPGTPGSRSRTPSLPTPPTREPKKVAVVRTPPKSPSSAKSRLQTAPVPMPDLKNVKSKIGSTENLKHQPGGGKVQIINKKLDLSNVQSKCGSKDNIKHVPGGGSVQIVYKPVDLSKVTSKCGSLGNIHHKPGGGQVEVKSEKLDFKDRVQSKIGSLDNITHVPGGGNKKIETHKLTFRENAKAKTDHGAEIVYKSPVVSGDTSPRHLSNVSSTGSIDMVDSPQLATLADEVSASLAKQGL

B1: PT82 mAb (recombinantly expressed, mouse IgG2a/kappa) (antibody, V domains shown)
VH: EVKLEESGGGLVQPGGSMKLSCVASGFTFSNYWMNWIRQSPEKGLEWVAQIRLQSDNYATRYAESVKGRFTISRDESKTSVYLQMNNLRTEDTGIYYCTGGTTYWGQGTLVTVSA
VL: DIVMTQSQKFMSTSVGDRVSITCKASQNVGTAVAWYQQKPGQSPKLLIYSASIRYTGVPDRFTGSGSGTDFTLTINYMQSEDLADYFCQQFSSYPYTFGGGTKLEIK
notes: also called recombinant PT82; mouse PT82
For B1, the 50% effective concentration (EC50 (read off the curve)) was roughly 0.04 µg/mL.
